Tests used:
[1] = system: carboxylation of FIXgla-PC reporter protein in AV12 cells (reduction of vitamin K to KH2); test: Cell-based VKOR activity assay in FIXgla-PC/AV12 or FIXgla-PC/VKOR-Y139F/AV12 cells, carboxylated reporter by ELISA; set-up: species or system Syrian golden hamster
[2] = system: carboxylation of FIXgla-PC reporter protein in HEK293 cells (reduction of KO to vitamin K); test: Cell-based VKOR activity assay: recombinant VKOR/VKORH expressed in FIXgla-PC/HEK293 cells with KO and warfarin, carboxylated reporter by ELISA; set-up: species or system human
[3] = literature refs 18, 25; cited from earlier work
[4] = Activity of warfarin-resistant Y139F human VKOR relative to wild-type human VKOR

B1: VKOR-Y139F: human VKOR rendered warfarin resistant by Y139F mutation; control (protein, UniProt Q9BQB6 1-163, looked up, variant Y139F)
Vitamin K epoxide reductase …: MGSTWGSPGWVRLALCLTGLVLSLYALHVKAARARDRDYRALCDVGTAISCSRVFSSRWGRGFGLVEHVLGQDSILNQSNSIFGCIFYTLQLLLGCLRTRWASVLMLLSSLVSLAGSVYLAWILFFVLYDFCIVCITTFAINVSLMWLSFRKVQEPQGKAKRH
increase of reporter protein carboxylation by over-expression ([1]; stable expression in AV12, 5 μM KO, no warfarin (FIG. 7B)): approximately two-fold
carboxylated reporter protein secreted ([1]; transient expression in FIXgla-PC/AV12, 5 μM KO, 2 μM warfarin (FIG. 7A)): no carboxylated reporter protein was secreted
support of reporter protein carboxylation ([1]; transient expression in FIXgla-PC/AV12 not stably expressing VKOR-Y139F, KO and warfarin (FIG. 19B)): did not support carboxylation of the reporter protein
carboxylation of reporter protein by human VKOR cysteine mutants ([2]; Y139F background, 4 μM warfarin, HEK293 (FIG. 13)): restored
increase of carboxylated reporter protein compared to the control ([2]; transient expression, 5 μM KO, 2 μM warfarin, HEK293, control empty vector): ~20 fold
fraction of wild-type activity [3]: ~40%
reduction in the activity of human VKOR caused by the Y139F mutation [4]: approximately 50%
fraction of wild-type VKOR activity observed ([4]; Y139F human VKOR): About 50%

Source: US9631002B2, “Methods and compositions for producing active vitamin K-dependent proteins” (The University of North Carolina at Chapel Hill, priority 2010, dated 2017)
